Laboratory results as given in US20170137467A1 (CHROMOTEK, published 2017).
Square brackets hold non-standard residues; d marks the D form. GABA = NCCCC(=O)O

Key:
Assay in all cases: peptide library pulldown on immobilized Nb, LC-MS of supernatant; ratio vs GFP-Nb control (1 = not captured, 0 = captured)
BC2T S8P library peptide = molecular target: T1, BC2T S8P library peptide (human)
T1 construct: also called BC2TS8X: P
T1 peptide: Ac-PDRKAAVPHWQQ-NH2
Description: (§1) In total, 12 different BC2T libraries displaying all 20 proteinogenic amino acids in one single position of the peptide were used in immunoprecipitation experiments. […] The direct comparison with the GFP-Nb made it possible to determine the quantitative degree of peptide capture without the need of labeled standards. […] The more peptide was captured the more the value approximates 0. It was not possible to discriminate between isoleucine (I) and leucine (L) peptide versions since these peptides are isobaric.
(§2) To investigate the binding specificity of the BC2T and derived mutants peptide libraries for each amino acid position of the sequence […] (SEQ ID NO:4) were synthesized with acetyl and amide groups located at the N-termini or C-termini respectively (Intavis). […] Incubations were performed in 300 μl PBS/0.01% CHAPS for 1 h on a HulaMixer (Life Technologies). Subsequent to a centrifugation step 10 μl supernatant were analyzed in a LC-MS procedure. Peptides were separated using an UltiMate3000 RSLCnano System (Thermo Scientific), composed of a C18 PepMap100μ-Precolumn (300 μm×5 mm; particle size: 5 μm; pore size: 100 Å—Thermo Scientific) and a C18 analytical column (Acclaim Rapid Separation LC (RSLC) Column: 150 mm×5 mm; particle size: 2.2 μm; pore size: 100 Å—Thermo Scientific). A step gradient was applied starting at 8% and ending after 20 min at 30% eluent B (80% acetonitrile, 20% H₂O, 0.1% formic acid).

[1] = molecular target: T2, BC2T S8C* library peptide (human, also: Abu described as gamma-amino butyric acid)
T2 construct: also called BC2TS8X: C*; C(Abu)
T2 peptide: Ac-PDRKAAV[GABA]HWQQ-NH2
Description: as §1, §2

BC2T H9G library peptide = molecular target: T3, BC2T H9G library peptide (human)
T3 peptide: Ac-PDRKAAVSGWQQ-NH2
Description: as §1, §2

[2] = molecular target: T4, BC2T H9(I/L) library peptide, version 1 (N-terminal acetyl, C-terminal amide)
T4 construct: Ile and Leu versions are isobaric; two versions resolved but not assigned; also called I/L1
Description: as §1, §2

BC2T H9M library peptide = molecular target: T5, BC2T H9M library peptide (human)
T5 peptide: Ac-PDRKAAVSMWQQ-NH2
Description: as §1, §2

BC2T H9P library peptide = molecular target: T6, BC2T H9P library peptide (human)
T6 peptide: Ac-PDRKAAVSPWQQ-NH2
Description: as §1, §2

BC2T H9Q library peptide = molecular target: T7, BC2T H9Q library peptide (human)
T7 peptide: Ac-PDRKAAVSQWQQ-NH2
Description: as §1, §2

BC2T H9K library peptide = molecular target: T8, BC2T H9K library peptide (human)
T8 peptide: Ac-PDRKAAVSKWQQ-NH2
Description: as §1, §2

[3] = molecular target: T9, BC2T W10A library peptide (human)
T9 construct: also called BC2TW10X: A
T9 peptide: Ac-PDRKAAVSHAQQ-NH2
Description: as §1, §2

[4] = molecular target: T10, BC2T W10(I/L) library peptide, version 2 (N-terminal acetyl, C-terminal amide)
T10 construct: Ile and Leu versions are isobaric; two versions resolved but not assigned; also called BC2TW10X: I/L2
Description: as §1, §2

[5] = molecular target: T11, BC2T W10P library peptide (human)
T11 construct: also called BC2TW10X: P
T11 peptide: Ac-PDRKAAVSHPQQ-NH2
Description: as §1, §2

[6] = molecular target: T12, BC2T W10S library peptide (human)
T12 construct: also called BC2TW10X: S
T12 peptide: Ac-PDRKAAVSHSQQ-NH2
Description: as §1, §2

[7] = molecular target: T13, BC2T W10R library peptide (human)
T13 construct: also called BC2TW10X: R
T13 peptide: Ac-PDRKAAVSHRQQ-NH2
Description: as §1, §2

[8] = molecular target: T14, BC2T Q11G library peptide (human)
T14 peptide: Ac-PDRKAAVSHWGQ-NH2
Description: as §1, §2

[9] = molecular target: T15, BC2T Q11(I/L) library peptide, version 1 (N-terminal acetyl, C-terminal amide)
T15 construct: Ile and Leu versions are isobaric; two versions resolved but not assigned; also called I/L1
Description: as §1, §2

[10] = molecular target: T16, BC2T Q11M library peptide (human)
T16 peptide: Ac-PDRKAAVSHWMQ-NH2
Description: as §1, §2

[11] = molecular target: T17, BC2T Q11D library peptide (human)
T17 peptide: Ac-PDRKAAVSHWDQ-NH2
Description: as §1, §2

[12] = molecular target: T18, BC2T Q12S library peptide (human)
T18 peptide: Ac-PDRKAAVSHWQS-NH2
Description: as §1, §2

[13] = molecular target: T19, BC2T Q12C* library peptide (human, SMILES …)
T19 construct: also called C(Abu)
T19 peptide: Ac-PDRKAAVSHWQ[GABA]-NH2
Description: as §1, §2

B1: BC2-Nb(R106E) (VHH)
VHH: QVQLVESGGGLVQPGGSLTLSCTASGFTLDHYDIGWFRQAPGKEREGVSCINNSDDDTYYADSVKGRFTIFMDNAKDTVYLQMNSLKPEDTAIYYCAEARGCKRGEYEYDFWGQGTQVTVSS
notes: Headlock mutant; immobilized on beads in the library pulldown
Binder B1 has a ratio (BC2T S8P library peptide) of 1, a ratio [1] of 0.1 and a ratio (BC2T H9G library peptide) of 0.7. It also gave a ratio [2] of 0.4, a ratio (BC2T H9M library peptide) of 0.2 and a ratio (BC2T H9P library peptide) of 0.9. The ratio (BC2T H9Q library peptide) was 0.3, the ratio (BC2T H9K library peptide) was 0.2 and the ratio [3] was 1.1. It also gave a ratio [4] of 1, a ratio [5] of 1.1 and a ratio [6] of 1.2. It also gave a ratio [7] of 1.3, a ratio [8] of 0.4 and a ratio [9] of 0.2. It also gave a ratio [10] of 0.2, a ratio [11] of 0.5 and a ratio [12] of 0.1. It also gave a ratio [13] of 0.1.
